Experimental data taken from patent publication EP4019546A1 (Numab Therapeutics AG, dated 2022).

T1: human IL-31 (human, UniProt Q6EBC2 24-164)
T1 sequence (looked up): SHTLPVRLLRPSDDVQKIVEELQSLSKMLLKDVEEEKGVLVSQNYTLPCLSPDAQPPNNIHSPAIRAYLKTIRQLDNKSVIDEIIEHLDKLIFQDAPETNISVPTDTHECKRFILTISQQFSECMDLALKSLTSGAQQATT

T2: cynomolgus IL-31-His (cynomolgus monkey (Macaca fascicularis), UniProt G7PJ78 24-163)
T2 construct: extracellular domain; also called cynomolgus monkey IL-31; cyno IL-31; not shown: His tag
T2 sequence: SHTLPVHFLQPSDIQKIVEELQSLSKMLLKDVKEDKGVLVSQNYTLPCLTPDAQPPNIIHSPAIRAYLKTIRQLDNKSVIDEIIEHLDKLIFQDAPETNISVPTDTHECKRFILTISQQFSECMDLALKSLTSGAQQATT


Tests used:
human IL-31 [1] = molecular target: T1, human IL-31; assay: cell-based or functional assay
cynomolgus IL-31-His = molecular target: T2, cynomolgus IL-31-His; assay: SPR (Biacore T200), IL-31-His captured via anti-His antibody, scFv as analyte, 1:1 model
human IL-31 [2] = molecular target: T1, human IL-31; assay: cell-based or functional assay; remark: listed apart in the source

| Binder | IC50, neutralization of hIL-31-induced signaling in IL-31RA/OSMR dimerization assay (human IL-31 [1]) | Kd (cynomolgus IL-31-His) | koff (cynomolgus IL-31-His) | kon (cynomolgus IL-31-His) | Mean IC50, neutralization of human IL-31-induced signaling in IL-31RA/OSMR dimerization assay (human IL-31 [2]) |
| --- | --- | --- | --- | --- | --- |
| PRO1900 (scFv) AFQLTQSPSSLSASVGDRVTITCQASQSIDSWLAWYQQKPGKPPKLLIYQASKLASGVPSRFSGSGSGTDYTLTISSLQPEDFATYYCQTYYGGGHIGWGFGTGTKVTVLGGGGGSGGGGSGGGGSGGGGSQSQLVESGGGRVQPGGSLRLSCAASGFSFSANYWICWVRQAPGKGLEWIVCIYIGSRADTYYAPWAKGRFTISKDNSKNTVYLQMNSLRAEDTATYFCARFSSGIYDLDRFFLWGQGTQVTVSS | 8.21 ng/mL |  |  |  |  |
| PRO1901 (scFv) AFQLTQSPSSLSASVGDRVTITCQASQSIDSWLAWYQQKPGKPPKLLIYQASKLASGVPSRFSGSGSGTDYTLTISSLQPEDFATYYCQTYYGGGHIGWGFGTGTKVTVLGGGGGSGGGGSGGGGSGGGGSQSQLVESGGGSVQPGGSLRLSCAASGFSFSANYWICWVRQAPGKGLEWIVCIYIGSRADTYYAPWAKGRFTISKDNSKNTVYLQMNSLRAEDTATYFCARFSSGIYDLDRFFLWGQGTQVTVSS | 8.07 ng/mL | 1.14 nM | 0.000569 s⁻¹ | 501000 M⁻¹ s⁻¹ |  |
| PRO1902 (scFv) AFQLTQSPSSLSASVGDRVTITCQASQSIDSWLAWYQQKPGKPPKLLIYQASKLASGVPSRFSGSGSGTDYTLTISSLQPEDFATYYCQTYYGGGHIGWGFGTGTKVTVLGGGGGSGGGGSGGGGSGGGGSQSQLVESGGGLVQPGGSLRLSCAASGFSFSANYWICWVRQAPGKGLEWIVCISIGSRADTYYAPWAKGRFTISKDNSKNTVYLQMNSLRAEDTAVYFCARFSSGIYDLDRFFLWGQGTLVTVSS | 371 ng/mL | 3.38 nM | 0.00247 s⁻¹ | 731000 M⁻¹ s⁻¹ |  |
| PRO1903 (scFv) AFQLTQSPSSLSASVGDRVTITCQASQSIESWLAWYQQKPGKPPKLLIYQASKLASGVPSRFSGSGSGTDYTLTISSLQPEDFATYYCQTYYGGGHIGWGFGTGTKVTVLGGGGGSGGGGSGGGGSGGGGSQSQLVESGGGLVQPGGSLRLSCAASGFSFSANYWICWVRQAPGKGLEWIVCIYIGSRADTYYAPWAKGRFTISKDNSKNTVYLQMNSLRAEDTAVYFCARFSSGIYDLDRFFLWGQGTLVTVSS | 7.98 ng/mL | 1.39 nM | 0.000605 s⁻¹ | 434000 M⁻¹ s⁻¹ |  |
| PRO2198 (bispecific antibody) chain 1: DIQMTQSPSSLSARVGDRVTITCQASEDIESYLAWYQQKPGKAPKLLIYRASTLAYGVPSRFSGSGSGRDFTLTISSLQPEDFATYYCLGSSYSTGSNIFGQGTKVEIKRTVAAPSVFIFPPSDEQLKSGTASVVCLLNNFYPREAKVQWKVDNALQSGNSQESVTEQDSKDSTYSLSSTLTLSKADYEKHKVYACEVTHQGLSSPVTKSFNRGEC chain 2: not shown |  |  |  |  | 0.198 nM |
| PRO2199 (bispecific antibody) chain 1: not shown chain 2: DIQMTQSPSSLSASVGDRVTITCQASEDIESYLAWYQQKPGKAPKLLIYRASTLAYGVPSRFSGSGSGTDFTLTISSLQPEDFATYYCLGSSYSTGSNIFGQGTKVEIKRTVAAPSVFIFPPSDEQLKSGTASVVCLLNNFYPREAKVQWKVDNALQSGNSQESVTEQDSKDSTYSLSSTLTLSKADYEKHKVYACEVTHQGLSSPVTKSFNRGEC |  |  |  |  | 0.142 nM |
